From patent publication US20240270846A1 (published 2024)
Where a chain is given by its changes, count along the chain named. Names and notes keep the numbering of the source.

B1: GLS3000 G89K one-arm antibody (antibody, human IgG1, kappa, L234A L235A, N297A, name in Kabat numbering)
light: DIVMTQSPLSLPVTPGEPASISCRSSQSLVHSNRNTYLHWYQQKPGQAPRLLIYKVSNRFSGVPDRFSGSGSGTDFTLKISRVEAEDVGVYYCKQGTQVPYTFGQGTKLEIKRTVAAPSVFIFPPSDEQLKSGTASVVCLLNNFYPREAKVQWKVDNALQSGNSQESVTEQDSKDSTYSLSSTLTLSKADYEKHKVYACEVTHQGLSSPVTKSFNRGEC
heavy: QVQLVESGGGVVQPGRSLRLSCAASGFTFSNAWMHWVRQAPGKGLEWVAQIKAKSNNYATYYAESVKGRFTISRDDSKNSLYLQMNSLKTEDTAVYYCRYVHYGAYYGVDAWGQGTTVTVSSASTKGPSVFPLAPSSKSTSGGTAALGCLVKDYFPEPVTVSWNSGALTSGVHTFPAVLQSSGLYSLSSVVTVPSSSLGTQTYICNVNHKPSNTKVDKKVEPKSCDKTHTCPPCPAPEAAGGPSVFLFPPKPKDTLMISRTPEVTCVVVDVSHEDPEVKFNWYVDGVEVHNAKTKPREEQYASTYRVVSVLTVLHQDWLNGKEYKCKVSNKALPAPIEKTISKAKGQPREPQVYTLPPSRCELTKNQVSLSCAVKGFYPSDIAVEWESNGQPENNYKTTPPVLDSDGSFFLVSKLTVDKSRWQQGNVFSCSVMHEALHNHYTQKSLSLSPDYKDDDDK
chain: EPKSSDKTHTCPPCPAPELLGGPSVFLFPPKPKDTLMISRTPEVTCVVVDVSHEDPEVKFNWYVDGVEVHNAKTKPREEQYNSTYRVVSVLTVLHQDWLNGKEYKCKVSNKALPAPIEKTISKAKGQPREPQVCTLPPSRDELTKNQVSLWCLVKGFYPSDIAVEWESNGQPENNYKTTPPVLDSDGSFFLYSKLTVDKSRWQQGNVFSCSVMHEALHNRYTQKSLSLSP
B2: GLS3000 G89L one-arm antibody (antibody, human IgG1, kappa, L234A L235A, N297A, name in Kabat numbering)
light: B1 light with K94L
heavy: B1 heavy
chain: B1 chain
B3: GLS3000 G89M one-arm antibody (antibody, human IgG1, kappa, L234A L235A, N297A, name in Kabat numbering)
light: B1 light with K94M
heavy: B1 heavy
chain: B1 chain
B4: GLS3000 G89T one-arm antibody (antibody, human IgG1, kappa, L234A L235A, N297A, name in Kabat numbering)
light: B1 light with K94T
heavy: B1 heavy
chain: B1 chain
B5: GLS3000 G89W one-arm antibody (antibody, human IgG1, kappa, L234A L235A, N297A, name in Kabat numbering)
light: B1 light with K94W
heavy: B1 heavy
chain: B1 chain
B6: GLS3000 G89V one-arm antibody (antibody, human IgG1, kappa, L234A L235A, N297A, name in Kabat numbering)
light: B1 light with K94V
heavy: B1 heavy
chain: B1 chain
B7: GLS3000 G89R one-arm antibody (antibody, human IgG1, kappa, L234A L235A, N297A, name in Kabat numbering)
light: B1 light with K94R
heavy: B1 heavy
chain: B1 chain
B8: GLS3000 G89P one-arm antibody (antibody, human IgG1, kappa, L234A L235A, N297A, name in Kabat numbering)
light: B1 light with K94P
heavy: B1 heavy
chain: B1 chain
B9: GLS3000 G89Q one-arm antibody (antibody, human IgG1, kappa, L234A L235A, N297A, name in Kabat numbering)
light: B1 light with K94Q
heavy: B1 heavy
chain: B1 chain
B10: GLS3000 G89N one-arm antibody (antibody, human IgG1, kappa, L234A L235A, N297A, name in Kabat numbering)
light: B1 light with K94N
heavy: B1 heavy
chain: B1 chain

These binders were tested against T1, CD3 epsilon homodimer protein (UniProt P07766 23-126) (assay: SPR Biacore T200, CD3e homodimer on chip, antibody analyte;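 further: CD3 epsilon homodimer amine-coupled on CM4 sensor chip, antibodies injected as analyte at 25 °C in HBS-EP+, ratio ≥0.8 taken as binding retained versus unaltered parent antibody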).
T1 construct: Construct of the homodimer is not described; also called CD3 (CD3 epsilon)
T1 sequence (P07766 23-126): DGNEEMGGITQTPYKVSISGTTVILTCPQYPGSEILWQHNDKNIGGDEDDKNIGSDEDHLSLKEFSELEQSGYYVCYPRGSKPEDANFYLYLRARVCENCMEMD

| ratio of amounts bound (altered form/GLS3000) | Binder |
| --- | --- |
| 0.4 | B1 |
| 0.94 | B2 |
| 0.52 | B3 |
| 1.03 | B4 |
| 0.5 | B5 |
| 1.63 | B6 |
| 0.19 | B7 |
| 0.35 | B8 |
| 0.38 | B9 |
| 0.8 | B10 |
